Data published in publication PMC4809600, “The Influence of Chronic Wound Extracts on Inflammatory Cytokine and Histatin Stability” (PLoS ONE, 2016).

Assays:
[1] = Stability in PBS, capillary zone electrophoresis; format: physicochemical; settings: 1 mg/ml in PBS mixed 1:1 with PBS, 37°C, 96 h, CZE, UV 200 nm, ratio to imidazole internal standard, 0 h = 100%
Method: To determine the stability of the different peptides in CWE, histatins and cytokines were dissolved in PBS at 1 mg/ml. Histatins and cytokines were incubated in a 1:1 ratio with (i) PBS, (ii) CWE in PBS, or (iii) CWE in PBS containing PIC, in a total volume of 25 μl. Imidazole (Sigma-Aldrich) was added as an internal standard, with a final concentration of 100 μg/ml. The mixtures were incubated at 37°C, and samples were taken at 0, 24, 48, 72 and 96 h. For histatins containing mixtures, additional samples were taken after 2, 4, 8 and 16 h of incubation.
The samples were analyzed with a BioFocus 2000 capillary zone electrophoresis system (Bio-Rad Laboratories, Hercules, CA, USA) equipped with an uncoated fused-silica capillary of internal diameter 50 μm and a length of 24 cm. Samples were loaded by pressure injection (5 psi/sec). Separation was performed at 10 kV (cathode at the detector side) at 20°C using 0.1 M phosphate buffer (pH 2.5) as electrolyte and monitored continuously at 200 nm. Peaks were quantified with the BioFocus Integrator software. In order to quantify the percentage of intact peptides remaining after incubation with CWE, the ratios of histatins, rhIL-6 or rhCXCL8 to internal standard was set at 100% at 0h, and the ratios at the other incubation time points were related to this.

[2] = Stability in chronic wound extracts (CWE), capillary zone electrophoresis; format: in vitro ADME, human; settings: 37°C, CZE, 0 h = 100%; for Percentage intact, CWE 24h / Percentage intact, CWE 48h / Percentage intact, CWE 72h / Percentage intact, CWE 96h: 1 mg/ml in PBS mixed 1:1 with CWE (1 mg/ml protein, pool of 5 donors) in PBS, UV 200 nm, ratio to imidazole; for Starting material remaining intact after 96 h in CWE: 1 mg/ml in PBS mixed 1:1 with CWE (1 mg/ml protein, pools of 5 donors), mean of 3 independent experiments
Procedure, shortened: (§1)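 Peptides or cytokines (1 mg/ml stock) mixed 1:1 with PBS or pooled chronic-wound extract (1 mg/ml protein, three pools of five donors), ±protease inhibitor cocktail, at 37 °C for up to 96 h. Analyzed by capillary zone electrophoresis (pH 2.5 phosphate, 200 nm), with peak ratio to imidazole standard relative to 0 h as % intact.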

[3] = Stability in CWE with protease inhibitor cocktail (PIC), capillary zone electrophoresis; format: in vitro ADME, human; settings: 1 mg/ml in PBS mixed 1:1 with CWE (1 mg/ml protein, pool of 5 donors) in PBS containing PIC (final 1:140 v/v), 37°C, CZE, ratio to imidazole, 0 h = 100%
Procedure, shortened: as §1

Substance	Percentage intact, PBS 96h ([1]; experiment 1 of 3)	Percentage intact, PBS 96h ([1]; experiment 2 of 3)	Percentage intact, PBS 96h ([1]; experiment 3 of 3)	Percentage intact, CWE 24h ([2]; experiment 1 of 3)	Percentage intact, CWE 24h ([2]; experiment 2 of 3)	Percentage intact, CWE 24h ([2]; experiment 3 of 3)	Percentage intact, CWE 48h ([2]; experiment 1 of 3)	Percentage intact, CWE 48h ([2]; experiment 2 of 3)	Percentage intact, CWE 48h ([2]; experiment 3 of 3)	Percentage intact, CWE 72h ([2]; experiment 1 of 3)	Percentage intact, CWE 72h ([2]; experiment 2 of 3)	Percentage intact, CWE 72h ([2]; experiment 3 of 3)	Percentage intact, CWE 96h ([2]; experiment 1 of 3)	Percentage intact, CWE 96h ([2]; experiment 2 of 3)	Percentage intact, CWE 96h ([2]; experiment 3 of 3)	Starting material remaining intact after 96 h in CWE [2]	Percentage intact, CWE + PIC 24h ([3]; experiment 1 of 3)	Percentage intact, CWE + PIC 24h ([3]; experiment 2 of 3)	Percentage intact, CWE + PIC 24h ([3]; experiment 3 of 3)	Percentage intact, CWE + PIC 48h ([3]; experiment 1 of 3)	other results
IL-6 CS: rhIL-6 from Cell Systems Biotechnology, Cat nr. CS-C1066	91.7071%	94.938%	88.4799%	87.5606%	96.7909%	93.0609%	82.5586%	90.261%	82.6368%	76.7459%	64.558%	69.7531%	67.9184%	56.1934%	44.5849%	56%	96.0006%	88.559%	95.4415%	84.6802%	Percentage intact, CWE + PIC 48h ([3]; experiment 2 of 3): 88.7813%; Percentage intact, CWE + PIC 48h ([3]; experiment 3 of 3): 87.103%; Percentage intact, CWE + PIC 72h ([3]; experiment 1 of 3): 88.9677%; Percentage intact, CWE + PIC 72h ([3]; experiment 2 of 3): 86.585%; Percentage intact, CWE + PIC 72h ([3]; experiment 3 of 3): 83.9413%; Percentage intact, CWE + PIC 96h ([3]; experiment 1 of 3): 78.2271%; Percentage intact, CWE + PIC 96h ([3]; experiment 2 of 3): 83.1651%; Percentage intact, CWE + PIC 96h ([3]; experiment 3 of 3): 79.7008%
IL-6 BioV: rhIL-6 from Biovision Inc, Cat nr. 4143	98.6817%	79.9235%	96.6267%	86.2456%	92.3596%	87.2422%	74.2431%	71.0486%	85.9071%	64.7766%	67.0796%	78.8792%	48.2486%	62.2324%	63.6069%	58%	100.779%	107.202%	97.2326%	100.572%	Percentage intact, CWE + PIC 48h ([3]; experiment 2 of 3): 97.0586%; Percentage intact, CWE + PIC 48h ([3]; experiment 3 of 3): 95.2476%; Percentage intact, CWE + PIC 72h ([3]; experiment 1 of 3): 93.9962%; Percentage intact, CWE + PIC 72h ([3]; experiment 2 of 3): 96.7281%; Percentage intact, CWE + PIC 72h ([3]; experiment 3 of 3): 94.831%; Percentage intact, CWE + PIC 96h ([3]; experiment 1 of 3): 90.2939%; Percentage intact, CWE + PIC 96h ([3]; experiment 2 of 3): 94.0745%; Percentage intact, CWE + PIC 96h ([3]; experiment 3 of 3): 94.3747%
